Here are results for 2 molecules from article PMC3335097 (2012).

No end group written: not given here. *: point of attachment. MTSSL = spin label (R1), CC1(C)C=C(CS*)C(C)(C)N1[O]

For experiment [1], the target named is T1, p15 fragment of Caspase-8-cleaved mouse Bid (tBid) (Mus musculus (Mouse), UniProt P70444).
T1 chain: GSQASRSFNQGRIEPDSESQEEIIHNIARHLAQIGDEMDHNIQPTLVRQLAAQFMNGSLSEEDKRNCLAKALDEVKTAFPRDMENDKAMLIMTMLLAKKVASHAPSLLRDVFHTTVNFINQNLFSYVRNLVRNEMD
Kind of experiment: SEC co-elution as 20 kDa complex, with SDS-PAGE and CD melting; no detergent; detergent (DDM/OG) dissociates the fragments, cardiolipin liposomes only partly.

The target in experiment [2] is T2, p15 fragment of spin labeled cleaved mouse Bid (cBidR1), MTSSL on C126 (Mus musculus (Mouse), UniProt P70444, MTSSL spin label (R1) on C126).
T2 chain: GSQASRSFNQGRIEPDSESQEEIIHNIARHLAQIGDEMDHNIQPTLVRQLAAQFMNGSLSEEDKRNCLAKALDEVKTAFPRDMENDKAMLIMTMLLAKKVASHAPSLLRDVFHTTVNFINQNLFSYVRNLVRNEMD
Kind of experiment: DEER EPR (also cw EPR; Trp/Tyr fluorescence at 0.5 uM); no detergent; MTSSL on C30 and C126; 2% OG or 2% DDM dissociates (reversed by OG removal), cardiolipin liposomes only partly.

B1: p7 fragment of Caspase-8-cleaved mouse Bid (protein)
chain: MDSEVSNGSGLGAEHITDLLVFGFLQSSGCTRQELEVLGRELPVQAYWEADLEDELQTD
In the case of B1, the binding result in experiment [1] is listed as “binds”.

B2: p7 fragment of spin labeled cleaved mouse Bid (cBidR1), MTSSL on C30 (protein)
chain: MDSEVSNGSGLGAEHITDLLVFGFLQSSGC(MTSSL)TRQELEVLGRELPVQAYWEADLEDELQTD
As to B2, in experiment [2], the binding result is listed as “binds”.
